System: target antigen-expressing cell line
Assay: Jurkat NFAT-GFP assay, coculture with target cell lines expressing the respective target antigen (summary Table 10A)
Format: cell-based, human
Parameters: key: The signs +/−, +, 2+ etc. after the name of the cell lines indicate the relative degree of positivity on the Jurkat-NFAT-GFP assay as measured by the % GFP positive cells; +: relative degree of positivity on the Jurkat-NFAT-GFP assay as measured by the % GFP positive cells; 2+: relative degree of positivity on the Jurkat-NFAT-GFP assay as measured by the % GFP positive cells
Settings: relative % GFP positive cells; for NFAT-GFP ASSAY Positive Cell lines: RAJI: SIR-expressing Jurkat-NFAT-GFP cells cocultured with RAJI; for NFAT-GFP ASSAY Positive Cell lines: NALM6: SIR-expressing Jurkat-NFAT-GFP cells cocultured with NALM6
Method in brief: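 Jurkat cells carrying an NFAT-site IL-2 promoter driving GFP were lentivirally transduced with SIRs, puromycin-selected, then cocultured with antigen-expressing target cells at E:T about 1:2 for about 4–18 hours. GFP induction was read by flow cytometry as % GFP-positive cells versus parental Jurkat-NFAT-GFP.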

B1: 050516-V06 (protein)
chain: MALPVTALLLPLALLLHAARPDIVMTQSPSSLSASVGDRVTITCKASQSVTNDVAWYQQKPGKAPKLLIYYASNRYTGVPSRFSGSGSGTDFTLTISSLQPEDFATYYCQQDYRSPWTFGGGTKVEIKRLEGKPIPNPLLGLDSTGSGEDLKNVFPPEVAVFEPSKAEIAHTQKATLVCLATGFYPDHVELSWWVNGKEVHSGVCTDPQPLKEQPALNDSRYCLSSRLRVSATFWQNPRNHFRCQVQFYGLSENDEWTQDRAKPVTQIVSAEAWGRADCGITSASYHQGVLSATILYEILLGKATLYAVLVSALVLMAMVKRKDSRGRAKRSGSGATNFSLLKQAGDVEENPGPTSMDWIWRILFLVGAATGAHSFEQVQLEESGGGVVRPGRSLRLSCAASGFTFSDYGVNWIRQAPGKGLEWVTIIWGDGRTDYNSALKSRFTVSRNNSNNTLSLQMNSLTTEDTAVYYCVRAPGNRAMEYWGQGVLVTVSSTREQKLISEEDGSGIQNPDPAVYQLRDSKSSDKSVCLFTDFDSQTNVSQSKDSDVYITDKCVLDMRSMDFKSNSAVAWSNKSDFACANAFNNSIIPEDTFFPSSDVPCDVKLVEKSFETDTNLNFQNLSVIGFRILLLKVAGFNLLMTLRLWSSRAKRSGSGVKQTLNFDLLKLAGDVESNPGPSRGHMTEYKPTVRLATRDDVPRAVRTLAAAFADYPATRHTVDPDRHIERVTELQELFLTRVGLDIGKVWVADDGAAVAVWTTPESVEAGAVFAEIGPRMAELSGSRLAAQQQMEGLLAPHRPKEPAWFLATVGVSPDHQGKGLGSAVVLPGVEAAERAGVPAFLETSAPRNLPFYERLGFTVTADVEVPEGPRTWCMTRKPGA
modifications: Synthetic Immune Receptor (SIR)
With B1 the “NFAT-GFP ASSAY Positive Cell lines: RAJI” value was “RAJI (+/−)”.

B2: 012617-S04 (protein)
chain: MALPVTALLLPLALLLHAARPLEGKPIPNPLLGLDSTGSGEDLKNVFPPEVAVFEPSKAEIAHTQKATLVCLATGFYPDHVELSWWVNGKEVHSGVCTDPQPLKEQPALNDSRYCLSSRLRVSATFWQNPRNHFRCQVQFYGLSENDEWTQDRAKPVTQIVSAEAWGRADCGITSASYHQGVLSATILYEILLGKATLYAVLVSALVLMAMVKRKDSRGRAKRSGSGATNFSLLKQAGDVEENPGPTSMALPVTALLLPLALLLHAARPDIQMTQSPSSLSASVGDRVTITCRASSSVSYMHWYQQKPGKAPKPLIYAPSNLASGVPSRFSGSGSGTDFTLTISSLQPEDFATYYCQQWSFNPPTFGQGTKVEIKRGGGGSGGGGSGGGGSEVQLVESGGGLVQPGGSLRLSCAASGYTFTSYNMHWVRQAPGKGLEWVGAIYPGNGDTSYNQKFKGRFTISVDKSKNTLYLQMNSLRAEDTAVYYCARVVYYSNSYWYFDVWGQGTLVTVSSTREQKLISEEDGSGIQNPDPAVYQLRDSKSSDKSVCLFTDFDSQTNVSQSKDSDVYITDKCVLDMRSMDFKSNSAVAWSNKSDFACANAFNNSIIPEDTFFPSSDVPCDVKLVEKSFETDTNLNFQNLSVIGFRILLLKVAGFNLLMTLRLWSSRAKRSGSGVKQTLNFDLLKLAGDVESNPGPSRGHMTEYKPTVRLATRDDVPRAVRTLAAAFADYPATRHTVDPDRHIERVTELQELFLTRVGLDIGKVWVADDGAAVAVWTTPESVEAGAVFAEIGPRMAELSGSRLAAQQQMEGLLAPHRPKEPAWFLATVGVSPDHQGKGLGSAVVLPGVEAAERAGVPAFLETSAPRNLPFYERLGFTVTADVEVPEGPRTWCMTRKPGA
For B2, the “NFAT-GFP ASSAY Positive Cell lines: NALM6” value was “(+/−)”.

B3: 102715-E07 (protein)
chain: MALPVTALLLPLALLLHAARPDIQMTQSPSSLSASVGDRVTITCRASQTIWSYLNWYQQRPGKAPNLLIYAASSLQSGVPSRFSGRGSGTDFTLTISSLQAEDFATYYCQQSYSIPQIFGQGTKLEIKLEGKPIPNPLLGLDSTGSGEDLKNVFPPEVAVFEPSKAEIAHTQKATLVCLATGFYPDHVELSWWVNGKEVHSGVCTDPQPLKEQPALNDSRYCLSSRLRVSATFWQNPRNHFRCQVQFYGLSENDEWTQDRAKPVTQIVSAEAWGRADCGITSASYHQGVLSATILYEILLGKATLYAVLVSALVLMAMVKRKDSRGRAKRSGSGATNFSLLKQAGDVEENPGPTSMDWIWRILFLVGAATGAHSFEQVQLQQSGPGLVKPSQTLSLTCAISGDSVSSNSAAWNWIRQSPSRGLEWLGRTYYRSKWYNDYAVSVKSRITINPDTSKNQFSLQLNSVTPEDTAVYYCAREVTGDLEDAFDIWGQGTMVTVSSTREQKLISEEDGSGIQNPDPAVYQLRDSKSSDKSVCLFTDFDSQTNVSQSKDSDVYITDKCVLDMRSMDFKSNSAVAWSNKSDFACANAFNNSIIPEDTFFPSSDVPCDVKLVEKSFETDTNLNFQNLSVIGFRILLLKVAGFNLLMTLRLWSSRAKRSGSGVKQTLNFDLLKLAGDVESNPGPSRGHMTEYKPTVRLATRDDVPRAVRTLAAAFADYPATRHTVDPDRHIERVTELQELFLTRVGLDIGKVWVADDGAAVAVWTTPESVEAGAVFAEIGPRMAELSGSRLAAQQQMEGLLAPHRPKEPAWFLATVGVSPDHQGKGLGSAVVLPGVEAAERAGVPAFLETSAPRNLPFYERLGFTVTADVEVPEGPRTWCMTRKPGA
modifications: Synthetic Immune Receptor (SIR)
In the case of B3, the “NFAT-GFP ASSAY Positive Cell lines: RAJI” value is reported as “RAJI (+)”.

B4: 041216-C05 (protein)
chain: MALPVTALLLPLALLLHAARPDIQMTQSPSSLSASVGDRVTITCRSSQSIVHSVGNTFLEWYQQKPGKAPKLLIYKVSNRFSGVPSRFSGSGSGTDFTLTISSLQPEDFATYYCFQGSQFPYTFGQGTKVEIKRLEGKPIPNPLLGLDSTGSGEDLKNVFPPEVAVFEPSKAEIAHTQKATLVCLATGFYPDHVELSWWVNGKEVHSGVCTDPQPLKEQPALNDSRYCLSSRLRVSATFWQNPRNHFRCQVQFYGLSENDEWTQDRAKPVTQIVSAEAWGRADCGITSASYHQGVLSATILYEILLGKATLYAVLVSALVLMAMVKRKDSRGRAKRSGSGATNFSLLKQAGDVEENPGPTSMDWIWRILFLVGAATGAHSFEEVQLVESGGGLVQPGGSLRLSCAASGYEFSRSWMNWVRQAPGKGLEWVGRIYPGDGDTNYSGKFKGRFTISADTSKNTAYLQMNSLRAEDTAVYYCARDGSSWDWYFDVWGQGTLVTVSSTREQKLISEEDGSGTPFPSLAPPIMLLVDGKQQMVVVCLVLDVAPPGLDSPIWFSAGNGSALDAFTYGPSPATDGTWTNLAHLSLPSEELASWEPLVCHTGPGAEGHSRSTQPMHLSGEASTARTCPQEPLRGTPGGALWLGVLRLLLFKLLLFDLLLTCSCLCDPAGPLPSPATTTRLRALGSHRLHPATETGGREATSSPRPQPRDRRWGDTPPGRKPGSPVRAKRSGSGVKQTLNFDLLKLAGDVESNPGPSRGHMTEYKPTVRLATRDDVPRAVRTLAAAFADYPATRHTVDPDRHIERVTELQELFLTRVGLDIGKVWVADDGAAVAVWTTPESVEAGAVFAEIGPRMAELSGSRLAAQQQMEGLLAPHRPKEPAWFLATVGVSPDHQGKGLGSAVVLPGVEAAERAGVPAFLETSAPRNLPFYERLGFTVTADVEVPEGPRTWCMTRKPGA
modifications: Polynucleotide encoding a Synthetic Immune Receptor (SIR)
With B4 the “NFAT-GFP ASSAY Positive Cell lines: NALM6” value was “(+/−)” and the “NFAT-GFP ASSAY Positive Cell lines: RAJI” value was “RAJI (+/−), NALM6”.
